Drawing on paper PMC10139993, this text covers photobleaching steps for four variants.

To fix the notation:
B1: Fused in sarcoma (FUS) wildtype with N-terminal GFP tag [not stated] / itself (parent)
chain: MASNDYTQQATQSYGAYPTQPGQGYSQQSSQPYGQQSYSGYSQSTDTSGYGQSSYSSYGQSQNTGYGTQSTPQGYGSTGGYGSSQSSQSSYGQQSSYPGYGQQPAPSSTSGSYGSSSQSSSYGQPQSGSYSQQPSYGGQQQSYGQQQSYNPPQGYGQQNQYNSSSGGGGGGGGGGNYGQDQSSMSSGGGSGGGYGNQDQSGGGGSGGYGQQDRGGRGRGGSGGGGGGGGGGYNRSSGGYEPRGRGGGRGGRGGMGGSDRGGFNKFGGPRDQGSRHDSEQDNSDNNTIFVQGLGENVTIESVADYFKQIGIIKTNKKTGQPMINLYTDRETGKLKGEATVSFDDPPSAKAAIDWFDGKEFSGNPIKVSFATRRADFNRGGGNGRGGRGRGGPMGRGGYGGGGSGGGGRGGFPSGGGGGGGQQRAGDWKCPNPTCENMNFSWRNECNQCKAPKPDGPGGGPGGSHMGGNYGDDRRGGRGGYDRGGYRGRGGDRGGFRGGRGGGDRGGFGPGKMDSRGEHRQDRRERPY

The assay covers variants of B1. The experiment in a line: SiMPull photobleaching step analysis. The conditions noted are these: with itself, read off a plot.

As for chain 1 R244C, the photobleaching steps (0.4M sorbitol 4 hr) is 2.1 steps, the photobleaching steps (no stress) was determined as 2.1 steps and the photobleaching steps (without stress) worked out at 2.1 steps.

For the variant chain 1 G156E, the photobleaching steps is, setting by setting: (0.4M sorbitol 4 hr) 2 steps; (no stress) 1.6 steps; (without stress) 1.6 steps.

Regarding chain 1 G187S, the photobleaching steps (0.4M sorbitol 4 hr) is 2.5 steps.

For the variant chain 1 R216C, the photobleaching steps stood at 2.2 steps (0.4M sorbitol 4 hr), 2.2 steps (no stress) and 2.2 steps (without stress).
